Experiment: soluble on expression in E. coli; label from the status in PepcDB or PDB records

Sequence | soluble on expression in E. coli
MTTWTLNHNNLTKFLTHAQLEPSLERESGLIYITVPAGEHELPLFFVIRNEGEVLQLVCYFPYQIQQNQRDTTARLLHLVNRDIDIPGFGMDEEQNIIFYRLVIPCLKGEINEDLLRVYIDTIKLICDSFFHAIGLISTGNMDLDELKKQAKLENNQSDQLEP | soluble
MGSDKIHHHHHHMEIELKTLGNYKAILGESPVYDREGNRLFWVDIDGKKVIVNNLDTNEEKYYDTPDLVTSLCLIDYKRIIVTLRHGFHTLNLTTGEITPYLELENNGENRFNDGKCDIRDRYWAGTMNLHIENPKPTASLYKLEGQRLTKVLDKLYRSNGLGWDPDNKLFYLIDTPLRKVFQFDFDKDKGDIYNKRIVMDFKYEPGRPDGMTIDEEGYLWIAHSAGGKVSRWNPKNGEKVSEIKLPVLYVSSVTFGSPEMNQIFITTMSKGGEPLAGRLFTAKMNIKGLQSYKFLT | not soluble
MSAVEQFVSYCRDEIEIVARLVDLLEQEQKLLIRGESLQLEPLADRKSEVLDQLAAQSAQRGRLMESLGVQDKDTLYIWLADKPSACKEWTRLEDAVNRAQSINQLNAAFVDERLAQVESSLDVLRTAAASTLGYGPDGQPPELVSGRRLLGSA | not soluble
MSLGMPSKQREYSNRFFDSTVWNDFAFRDDDVVIASYAKAGTTWVQQIVAQLIFGGAEEIEVSRLSPWFDSVYPDKATKQRLLAEQRHRRFVKTHLPADALVLSERARYLYVGRDARDIVWSLYDHQRAVSADAQARLDAEPSSNGKLRVMPPPTCSVEDYFQTWMRADGAPLWPFWEGVRSWWALRDYDNVLLVHYAALLHDLPAQVRRIAAFLDIPLDAPCCERVLAHCSLDYMRAHAARYVPQGAGFWRDGGRAFFNQGLNGRWRDRLAPAVDAAYRQHVVAELGAECARWLATGDVASEGHHHHHH | soluble
MGFSFLLATVQKERMKRRSRTRSRSRRRAKQDPKTWVARYIPQDLLIEILTRLPPKSVMRFKCVSKFWSSLLSSRYFCNRFLIVPSQPQPSLYMCLLDRYNYSKSLILSSAPSTSPYSFVFDQDLTIRKMGGFFLRILRGFIFFTRNLKARIYNPTTRQLVILPTIKESDIIAGPPYNILYFICHDPVNDRYKLLCTVSYASDNDLQNLKSELWIFVLEAGGSWKRVANEFPHHVPSHLDLNMNGVLYFLAWTDPHTCMLVSFDVRSEEFNTMQVPRNAGDTLPRQEKGVVNRVW | not soluble
GPGSMSEEHANDSTLRVKVATINDKGEEVYASSLSHDGTYLAAVFGDGALVIFNPSTFSALDSSAAGKGYDNVPCTAVQWLESSEGGLYRLVSVSSAGGVFIWQWDGAALHRTNRVPEKGNEITCLAVSPECDMFITAGSDRTVRLYDADGTLKANLQMAHDESGVSRLAHTSRIFSVRFVSQGVAVSGGWGGPLQVWDLKANEARVEIRGAQVSSDGIELITGTNCVLVASRRQKEQLQVFDCVSGQELADDSARLSMALGELIPLSSRLCKTSGLVWTITSSPSKVLVTSYSTGQLIASYDSAYDLMNISIFEGLPNNAYISCAEGKLLFATVKQ | not soluble
REATWVTEKPLTLKIHMHFRDKWVWDENWPVAREVARLTNVKLVGVANRAATNSQEQFNLMMASGQLPDIVGGDNLKDKFIRYGMEGAFIPLNKLIDQNAPNLKAFFKTHPEVQRAITAPDGNIYYLPYVPDGLVSRGYFIRQDWLDKLHLKTPQTVDELYTVLKAFKEKDPNGNGKADEIPFINRDPEEVFRLVNFWGARSTGSNTWMDFYVENGKIKHPFAEVAFKDGIKHVAQWYKEGLIDPEIFTRKARSREQTFGNNIGGMTHDWFASTALFNDALSKNIPGFKLVPMAPPINSKGQRWEEDARQIPRPDGWAITATNKNPVETIKLFDFYFGPKGRELSNFGVPGLTYDIKNGKPVYKDTVLKAAQPVNNQMYDIGAQIPIGFWQDYEYERQWTNDVALQGIDMYIKNKYVLPQFTGVNLTVEEREIYDKYWPDVKTYMFEMGQSWVMGTKDPEKTWNDYQQQLKNRGFYQVMIVMQKAYDRQY | soluble
MSRSSLVDPSFELSDPCPDIHALFIQFDARFFGGSLACCEVKWSPRMYACAGICSYEIRGGRGGLCSIRLSKPLLTLRPRSDLVETLLHEMIHAYLFVKERNRDRDGHGPQFQAHMHRINQAGGTNITIYHSFHDEVRLYKQHWWRCSGPCRDRRPFFGYVKRSCNRAPGPNDRWWSQHQQSCGGNFLKVKEPEGYGQGKGSKRTNDKNKSGGPALKKTITPPRVTLDDFFKKDGKNSSDNSTSKSPTKPSTSLFTGSGQKLGGSSSTSSLLNSYPKATQNSGGNRLGGTSGGVSRLLPPVNFTSPSSAPVAEQVIDLGDSDDDDFQDMDDDALEISFVASDNSVICPSCNTEVMENLIHGHLDYCLG | not soluble
MEMGMKRIANECFFAWVESEIKSGRSVKFRVKGNSMMPLLRNGKDEVVVGPYDKEELKLFDVILFRQTDRYVLHRIIQKRDSRYLMQGDGVCRFYEECEDTDIIGVVRKVCRPSGKKIETDSMCWRLESRLWLGLGGCRGMVLRVLNRLGCCLLF | not soluble
GETSVPPGSALVGPSCVMDDFRDPQRWKECAKQGKMPCYFDLIEENVYLTERKKNKSHRDIKRMQCECTPLSKDERAQGEIACGEDCLNRLLMIECSSRCPNGDYCSNRRFQRKQHADVEVILTEKKGWGLRAAKDLPSNTFVLEYCGEVLDHKEFKARVKEYARNKNIHYYFMALKNDEIIDATQKGNCSRFMNHSCEPNCETQKWTVNGQLRVGFFTTKLVPSGSELTFDYQFQRYGKEAQKCFCGSANCRGYLGGENRVSIRAAGGKMKKERSRK | soluble
MVGQVIRKRGAYPEYTVEDVLAVIFLLKEPLGRKQISERLELGEGSVRTLLRKLSHLDIIRSKQRGHFLTLKGKEIRDKLLSMFSEPIGVSVDGYPGIAIVVKNPPEFKSIELRDEAIKFDAKGAMILTVKDNEIVFPEDFRPLKEMYPEVAKKIVDYEDGDAVIITWAETPAKALKSAIHVAYILKKEEITPEILEVVK | soluble
MNQPIGIADSSRPKTNVRLTISANNLMDLDVFSKSDPICLIYEKTSGRKATTTEEITVPTWKDKQWTERGRTEVVMNNLNPQFTKTFLLPYFFEETQLLRFEIYDADSPTVGQDLSSHDFLGRFECVLAQIVSYSTLKAHLGKTGQIGAQWRNKDKNTKTGSITIYAEEDEKAEKIQFDVCGEGLDKKDFFGKSDPYLNFKRKFDDGSTHLIHRTEVKPKTLDPRWATVQINTQTLCAKDGDRPIIIECYDHDKWKKGEEPRGDAKFSRDDLIGTAQTTLNELLRGSSDAVEILLTNEKKKAKKGDKYKCSGTLKIWNSRIVIEPTFLDFISGGTQLDFAVAVDFTASNGPPKSSSSLHFMSADRPNQYELALRSVLSICQHYNSSKTFEAFGFGAKLPNQSSVSAIFPLDLQRGTSEVVGITGVMTAYRHALSNVQLYGPTNFAPIIENVARKAQNMIHDSARYQILLIITDGIISDMHATIRSIISASGLPLSIIIIGVGNEDFEKMHELDSDDALLQQDSRIAQRDIVQFVTMREFLNNGQGLYLDPDVIQENLAREVLYEVPAQLTGYMKQRGFQPRPVDDPWRRDSPPPEFDPILDGTGRRAPMLQAPPAGFQYPVYADTSIASAPPMY | not soluble
MGSDKIHHHHHHMKDRSFDTLQEAVDVLSLTLNGPVTLEDREHRLLAYSKHSHETDSARIETIMNRQVPDRVIEGLWSSGLLQKLNQTDEPIRIPGIPAVGLGNRVAISIRQQQFVLGYIWVLELEEPLTDEQLNDLKDMVSLIRAMLIKQQETRFRRRLEREERWRHLYQGTETVAEVKRRFQAEGEPLPERGVVVQFFCERTIKEEHEQALSFISEKVKSRILVTFAMLIDGKWTVYLTDSLKKPLDEQVVKHFIDQWIRSWNDQFSYANVLAGVGQHCSQLTDVSESFHQAEKVIELKGEFAYELDKVYYFHELGFYRIIVDSVPILESETVQTLAAYDQKQGTELLQTLEAFLDVDGRNQAAAALLHVHPNTLNYRMKRIYELTGLDVKNMKDKVSLYLELKLRRWRNRVE | not soluble
FDLNDFLEQKVLVRMEAIINSMTMKERAKPEIIKGSRKRRIAAGSGMQVQDVNRLLKQFDDMQRMMKKM | soluble
MSLLTPEQIAAAQKANIESLFGLTTKAFEGVEKLIELNLQVVKSTLAESQENVQRALSVKDAQELLALQASLTQPIAEKVLAYGRHVYEIASATQAEFAKVAEAQYEEQNRKVQALVDNVAKNAPAGSETAVAALKSAINAANTTYETVQK | not soluble
SLSDTQEPVKLRIVHFNDVYNVFSISGGLGGGAAPFCTGLREKRGPDGLVLFSGDIFSPSPLSEASKGRQMAELLNYLDVHTSCYGNHDLDFGWEWLELLAGTTKCKWVMSNARSKIGGGVLANAQRYRIFEWGTTQRVVVGIMALIEEDWIDTLNAPDQEEIVYQDFVEAGREMVALFRRRGCDLVIALTHMRWNNDEKLAREVDGIDLILGGHDHAYVTKLVNGTAVIKSGSDFREFSAITLTPKLHLREQGTSHATGFSADHDSLAADGKNGYPVAFSGSTGGVAEVDGLCRQHGDSSHAVKRAGVCECLGRTQPVRQTKPEVVEGIHTEETQPAKLWSSGRWWLSCEKVCVSADRFEADDSVMEMLVRYQTTYGNSQGCVLGAFPVLLETRFCEVRTRECNSGNWLADLMREYYGVDVALYNSGGIRSDCVFAEGEVVTSETLHAILSGTRQLDVIAVPGNLFKSILETSVSRWPQLEGRFLQVSGLRFVFEGSARVGERVLADEIQFRNRETGDWEPLVPDRVYSVATATFLARGGDGLSVLVDCPPLDTPQRNIRDLSELARLWFCRQHRKCGFEDVEEIPPRECEWIDR | not soluble
VHYGLKGITCVETSISHIDGEKGRLIYRGHHAKDIALNHSFEEAAYLILFGKLPSTEELQVFKDKLAAERNLPEHIERLIQSLPNNMDDMSVLRTVVSALGENTYTFHPKTEEAIRLIAITPSIIAYRKRWTRGEQAIAPSSQYGHVENYYYMLTGEQPSEAKKKALETYMILATEHGMNASTFSARVTLSTESDLVSAVTAALGTMKGPLHGGAPSAVTKMLEDIGEKEHAEAYLKEKLEKGERLMGFGHRVYKTKDPRAEALRQKAEEVAGNDRDLDLALHVEAEAIRLLEIYKPGRKLYTNVEFYAAAVMRAIDFDDELFTPTFSASRMVGWCAHVLEQAENNMIFRPSAQYTGAIPEEV | soluble
EVRALQLEYDQSMEAYQKLVEISPDAIYIQSMEGEILFANPSGIKLLGATDLNELVGLSVMNFIHPDYLNVVENRIGDAENLSGNISEQKAVTLKGEILDIEVVSVAFSYNGKAAEQVIVRNVT | not soluble
MREMKKLVKIATSLTLMGGIFVSANGVSANTDVTQKSSPNIMIEFDDVTTDHWAYDEITNLVYHRIMYGYGNGKFGTEDNITREQAAAVLHRALGLKRSVFDANPYGDISGKSTMFPYEILHLTNLGIFKGDENGNFRPKDTLTRAELAQILTKAYELKAKSPHTFTDIPEKHWARDAISALQSNKVAVGTGDGKFEPEMLVTRGQFAKFLQRSIDNSPGKME | not soluble
MGGSVDFERWFKGPAAIYGGIEYQTPYQPLRLKVEYDSNDYSQDFPVTRGNVDMTQHTPWNFGVLYGLGDWGDIKVSYQRGDTLTLGVNLTTNFNDMKAIWRDEPITAYDESSNQSIDEVDWQRVNQQLNGNAGYEDNRIYADDDSVTLVATQTKYRDSDEAHDRASRIFANHVPETISTYRIIETNQSMPVSETLIDAAQYKKVANNEYFDAKVADASQTDEVTYSPSEHSLKSDNLDRWDYSVSPTLSQSIGSAESFYLYAVGINTAGSVWLTDKVQASGSLYFNLFDNYDKFNYITPPDGTSVPRVRTMFRAYVHENPVRMNNLQLTWFEEYGAGFYSQMYAGYLESMFGGIGSEVMYRPLNSNWAFGIDATYIKQRTPGDWFGFYEQDHQEGGDYGRDYTVVSSGVTGFATAYYAPQWSFLKNTLLKVGVGQFLAGDKGTRIDFSKQFDSGVIAGAYASFTDLSAEEFGEGSYTKGFYISIPFDIMTVKPSKNRANFNWQPLTRDGGQMLNKQHDLYELTDERSPWFTRKGLLEHHHHHH | not soluble

From the DeepSol protein solubility set
